From patent publication US20250320281A1

Tests used:
Experiment in all cases: cell-based or functional assay
[1] = target: HIV-1 Env of isolate MGRM-D-019 (pseudovirus) (HIV-1)
[2] = target: HIV-1 Env of isolate MGRM-F1-012 (pseudovirus) (HIV-1)
[3] = target: HIV-1 Env of isolate MGRM-AE-004 (HIV-1)
[4] = target: HIV-1 Env of isolate TRO.11 (subtype B pseudovirus) (HIV-1)
[5] = target: HIV-1 Env of isolate MGRM-D-026 (pseudovirus) (HIV-1)
[6] = target: HIV-1 Env of isolate MGRM-F1-023 (HIV-1)
[7] = target: HIV-1 Env of pseudovirus isolate MGRM-G-025 (HIV-1)
[8] = target: HIV-1 Env of isolate MGRM-F1-008 (pseudovirus) (HIV-1)
[9] = target: HIV-1 Env of isolate MGRM-D-002 (pseudovirus) (HIV-1)
[10] = target: HIV-1 Env of isolate MGRM-D-004 (pseudovirus) (HIV-1)
[11] = target: HIV-1 Env of isolate 98CN006 (pseudovirus) (HIV-1)
[12] = target: HIV-1 envelope glycoprotein (Env) of isolate MGRM-C-014 (HIV-1)
[13] = target: HIV-1 Env of isolate SC422661.8 (subtype B) (HIV-1)
[14] = target: HIV-1 envelope glycoprotein (Env) of isolate MGRM-C-015 (HIV-1)
[15] = target: HIV-1 Env of isolate MG RM-D-001 (HIV-1)
[16] = target: HIV-1 Env of isolate MGRM-Chronic-B-004 (subtype B) (HIV-1)
[17] = target: HIV-1 Env of isolate QH0692.42 (subtype B) (HIV-1)
[18] = target: HIV-1 Env of isolate APV-13 (HIV-1)
[19] = target: HIV-1 envelope glycoprotein (Env) of isolate MGRM-C-010 (HIV-1)
[20] = target: HIV-1 Env of isolate MGRM-AG-006 (subtype AG) (HIV-1)
[21] = target: HIV-1 Env of isolate 94UG103 (HIV-1)
[22] = target: HIV-1 envelope glycoprotein (Env) of isolate MGRM-C-009 (HIV-1)
[23] = target: HIV-1 Env of isolate MG RM-D-020 (HIV-1)
[24] = target: HIV-1 Env of isolate MGRM-AE-007 (subtype AE) (HIV-1)
[25] = target: HIV-1 Env of isolate MGRM-Chronic-B-011 (subtype B) (HIV-1)
[26] = target: HIV-1 Env of isolate VLGCB3 (subtype B) (HIV-1)
[27] = target: HIV-1 Env of isolate APV-6 (HIV-1)
[28] = target: HIV-1 Env of isolate 92UG005 (clade D), on pseudovirus (HIV-1)
[29] = target: HIV-1 93IN905 Env (pseudovirus, clade C) (HIV-1)
[30] = target: HIV-1 93UG077 envelope glycoprotein (Env) on pseudovirus (HIV-1)
[31] = target: HIV-1 Env of isolate MGRM-G-019 (HIV-1)
[32] = target: aMLV envelope (negative control pseudovirus)
[33] = target: HIV-1 Env of pseudovirus MGRM-AG-013 (clade CRF_AG) (HIV-1)
[34] = target: HIV-1 Env of isolate MGRM-D-005 (clade D pseudovirus) (HIV-1)
[35] = target: HIV-1 Env of pseudovirus MGRM-F1-006 (HIV-1)
[36] = target: HIV-1 Env of isolate 92UG046 (clade D pseudovirus) (HIV-1)
[37] = target: HIV-1 envelope glycoprotein (Env) of isolate MGRM-A-012, clade A (HIV-1)
[38] = target: HIV-1 envelope glycoprotein (Env) of isolate MGRM-A-009, clade A (HIV-1)
[39] = target: HIV-1 Env of isolate 93TH305, clade B, on pseudovirus (HIV-1)
[40] = target: HIV-1 Env of isolate MGRM-D-028 (clade D pseudovirus) (HIV-1)
[41] = target: HIV-1 Env of isolate MGRM-D-016 (clade D pseudovirus) (HIV-1)
[42] = target: HIV-1 Env of pseudovirus MGRM-G-017 (HIV-1, clade G isolate MGRM-G-017)

Chain of 4970_K22 (PGT-144) (antibody) (VH): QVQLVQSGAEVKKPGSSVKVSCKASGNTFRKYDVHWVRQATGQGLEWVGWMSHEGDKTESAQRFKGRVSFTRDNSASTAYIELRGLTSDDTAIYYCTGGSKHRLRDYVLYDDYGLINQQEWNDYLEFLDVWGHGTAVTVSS
Chain of 4970_K22 (PGT-144) (antibody) (VL): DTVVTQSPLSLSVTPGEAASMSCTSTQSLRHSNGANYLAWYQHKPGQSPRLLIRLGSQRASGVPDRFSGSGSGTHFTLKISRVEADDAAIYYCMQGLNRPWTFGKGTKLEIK
Chain of 5345_I01 (PGT-137) (antibody) (VH): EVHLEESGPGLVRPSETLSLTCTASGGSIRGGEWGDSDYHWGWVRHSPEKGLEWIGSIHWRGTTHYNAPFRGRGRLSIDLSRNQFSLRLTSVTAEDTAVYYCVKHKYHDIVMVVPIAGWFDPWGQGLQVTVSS
Chain of 5345_I01 (PGT-137) (antibody) (VL): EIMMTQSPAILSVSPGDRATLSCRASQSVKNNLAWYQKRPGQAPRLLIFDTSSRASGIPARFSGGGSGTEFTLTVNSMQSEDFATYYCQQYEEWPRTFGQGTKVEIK
Chain of 4993_K13 (PGT-141) (antibody) (VH): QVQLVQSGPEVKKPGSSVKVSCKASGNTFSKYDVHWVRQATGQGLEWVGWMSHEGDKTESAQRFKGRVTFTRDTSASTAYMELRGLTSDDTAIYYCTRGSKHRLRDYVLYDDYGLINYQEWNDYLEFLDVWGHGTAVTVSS
Chain of 4993_K13 (PGT-141) (antibody) (VL): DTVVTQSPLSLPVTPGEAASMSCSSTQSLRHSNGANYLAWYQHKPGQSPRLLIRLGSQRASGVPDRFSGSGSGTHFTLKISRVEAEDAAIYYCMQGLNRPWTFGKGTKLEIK
Chain of 4980_N08 (PGT-143) (antibody) (VH): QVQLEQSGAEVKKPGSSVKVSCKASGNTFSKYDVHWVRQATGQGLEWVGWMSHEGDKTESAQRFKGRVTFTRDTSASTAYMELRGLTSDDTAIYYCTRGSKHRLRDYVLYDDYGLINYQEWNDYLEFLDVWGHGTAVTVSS
Chain of 4980_N08 (PGT-143) (antibody) (VL): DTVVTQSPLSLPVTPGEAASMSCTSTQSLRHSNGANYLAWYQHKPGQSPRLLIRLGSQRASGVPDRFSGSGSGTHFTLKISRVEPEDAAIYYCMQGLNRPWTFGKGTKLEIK
Chain of 4995_E20 (PGT-142) (antibody) (VH): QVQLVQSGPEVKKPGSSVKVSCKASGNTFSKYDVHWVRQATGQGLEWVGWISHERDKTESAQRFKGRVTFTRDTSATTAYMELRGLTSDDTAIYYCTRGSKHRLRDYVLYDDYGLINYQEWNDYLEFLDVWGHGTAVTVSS

Row | Substance | IC50, pseudovirus neutralization [1] [µg/mL] | IC50, pseudovirus neutralization [2] [µg/mL] | IC50 [3] [µg/mL] | IC50 (µg/mL), pseudovirus neutralization [4] [µg/mL] | IC50, pseudovirus neutralization [5] [µg/mL] | IC50 (µg/mL), pseudovirus neutralization [6] [µg/mL] | IC50 (µg/mL), pseudovirus neutralization [7] [µg/mL] | IC50, pseudovirus neutralization [8] [µg/mL] | IC50, pseudovirus neutralization [9] [µg/mL] | IC50, pseudovirus neutralization [10] [µg/mL] | IC50, pseudovirus neutralization [11] [µg/mL] | IC50, pseudovirus neutralization [28] [µg/mL] | IC50 neutralization [29] [µg/mL] | IC50 (µg/mL), pseudovirus neutralization [31] [µg/mL] | IC50 (µg/mL), pseudovirus neutralization [32] [µg/mL] | also measured
1 | 5145_B14 (PGT-127) (antibody) | > 50 | > 50 | > 50 | 0.079 | > 50 | 0.119 | 19.3 | > 50 | 0.6 | > 50 | 0.067 |  |  |  |  | 
2 | 5345_I01 (PGT-137) (antibody) |  |  |  |  |  |  | > 50 |  |  |  |  |  |  |  |  | IC50 (µg/mL), pseudovirus neutralization [12]: > 50 µg/mL; IC50 neutralization [13]: > 50 µg/mL; IC50 (µg/mL), pseudovirus neutralization [14]: 1.98 µg/mL; IC50 (µg/mL), pseudovirus neutralization [15]: > 50 µg/mL; IC50 neutralization [16]: > 50 µg/mL; IC50 neutralization [17]: > 50 µg/mL; neutralization IC50 [18]: > 50 µg/mL; IC50 (µg/mL), pseudovirus neutralization [19]: > 50 µg/mL; IC50 (µg/mL), pseudovirus neutralization [20]: 28.3 µg/mL; IC50 [21]: > 50 µg/mL; IC50 (µg/mL), pseudovirus neutralization [22]: > 50 µg/mL; IC50 (µg/mL), pseudovirus neutralization [23]: > 50 µg/mL; IC50 (µg/mL), pseudovirus neutralization [24]: > 50 µg/mL; IC50 neutralization [25]: > 50 µg/mL; IC50 neutralization [26]: 3.36 µg/mL; neutralization IC50 [27]: > 50 µg/mL
3 | 4877_D15 (PGT-122) (antibody) | > 50 | > 50 | > 50 | 0.011 | > 50 | 0.154 | 0.079 | > 50 | 0.005 | > 50 | 0.021 | > 10 | 0.0138 |  |  | 
4 | 4858_P08 (PGT-123) (antibody) | > 50 | 22.2 | > 50 | 0.008 | > 50 | 0.053 | 0.046 | > 50 | 0.012 | > 50 | 0.008 | 2.49 | 0.0071 |  |  | neutralization IC50 [30]: 0.0303 µg/mL; neutralization IC80 [30]: 0.143 µg/mL; neutralization IC90 [30]: 0.35 µg/mL; neutralization IC95 [30]: 0.78 µg/mL
5 | 4838_L06 (PGT-121) (antibody) | > 50 | 1.91 | > 50 | 0.008 | > 50 | 0.097 |  | > 50 | 0.006 | > 50 | 0.01 | > 10 |  |  |  | 
6 | 4980_N08 (PGT-143) (antibody) |  |  |  |  |  |  |  |  |  |  |  |  |  | 4.77 | > 50 | IC50 (neutralizing activity, pseudovirus) [32]: > 10 µg/mL
7 | 4970_K22 (PGT-144) (antibody) |  |  |  |  |  |  |  |  |  |  |  |  |  | > 50 | > 50 | IC50 (neutralizing activity, pseudovirus) [32]: > 10 µg/mL
8 | 5136_H01 (PGT-131) (antibody) |  |  |  |  |  |  | 7.75 |  |  |  |  |  |  |  |  | IC50 (µg/mL), pseudovirus neutralization [12]: > 50 µg/mL; IC50 neutralization [13]: > 50 µg/mL; IC50 (µg/mL), pseudovirus neutralization [14]: 1.01 µg/mL; IC50 (µg/mL), pseudovirus neutralization [15]: > 50 µg/mL; IC50 neutralization [16]: 0.04 µg/mL; IC50 neutralization [17]: > 50 µg/mL; neutralization IC50 [18]: 0.189 µg/mL; IC50 (µg/mL), pseudovirus neutralization [19]: > 50 µg/mL; IC50 (µg/mL), pseudovirus neutralization [20]: 0.019 µg/mL; IC50 [21]: 1.1 µg/mL; IC50 (µg/mL), pseudovirus neutralization [22]: > 50 µg/mL; IC50 (µg/mL), pseudovirus neutralization [23]: > 50 µg/mL; IC50 (µg/mL), pseudovirus neutralization [24]: 0.026 µg/mL; IC50 neutralization [25]: 6.47 µg/mL; IC50 neutralization [26]: > 50 µg/mL; neutralization IC50 [27]: > 50 µg/mL
9 | 4995_E20 (PGT-142) (antibody) |  |  |  |  |  |  |  |  |  |  |  |  |  | 5.95 | > 50 | IC50 (neutralizing activity, pseudovirus) [32]: > 10 µg/mL
10 | 5141_B17 (PGT-126) (antibody) | > 50 | 0.3 | > 50 | 0.041 | > 50 | 0.009 | 17.1 | > 50 | 0.039 | > 50 | 0.046 | 0.0181 | 0.0194 |  |  | IC50, pseudovirus neutralization [30]: 0.0256 µg/mL; IC80 (pseudovirus neutralization) [30]: 0.102 µg/mL; IC90 (pseudovirus neutralization) [30]: 0.238 µg/mL; IC95 (pseudovirus neutralization) [30]: 0.577 µg/mL
11 | 1496_C09 (PG9) (TCN-109) (antibody) |  |  |  |  |  |  |  |  |  |  |  |  | 0.048 | 14.6 |  | IC50 [33]: 0.23 µg/mL; IC50 (µg/ml), pseudovirus neutralization [34]: 0.59 µg/mL; IC50 (µg/ml), pseudovirus neutralization [35]: 1.45 µg/mL; IC50 (µg/ml), pseudovirus neutralization [36]: 0.64 µg/mL; IC50 (µg/ml), pseudovirus neutralization [37]: 11.2 µg/mL; IC50 (µg/ml), pseudovirus neutralization [38]: 0.03 µg/mL; IC50 (µg/ml), pseudovirus neutralization [39]: 2.08 µg/mL; IC50 (µg/ml), pseudovirus neutralization [40]: 4.39 µg/mL; IC50 (µg/ml), pseudovirus neutralization [41]: 0.1 µg/mL; IC50 (µg/ml), pseudovirus neutralization [42]: 0.03 µg/mL
12 | VRC01 (antibody) |  |  |  |  |  |  |  |  |  |  |  |  |  | 0.06 | > 50 | IC50 [23]: 0.192 µg/mL; IC50 [6]: 0.392 µg/mL
13 | PGV04 (antibody) |  |  |  |  |  |  |  |  |  |  |  |  |  | 0.027 | > 50 | IC50 (µg/mL), pseudovirus neutralization [28]: 0.44 µg/mL
14 | 5123_A06 (PGT-125) (antibody) | 0.049 | > 50 | > 50 | 0.111 | > 50 | 0.12 | > 50 | 0.361 | 0.118 | 0.371 | 0.201 | > 10 | 0.0137 |  |  | 
15 | 5114_A19 (PGT-128) (antibody) |  |  |  |  |  |  | 0.017 |  |  |  |  |  |  |  |  | IC50 (µg/mL), pseudovirus neutralization [12]: > 50 µg/mL; IC50 neutralization [13]: 1.58 µg/mL; IC50 (µg/mL), pseudovirus neutralization [14]: 0.196 µg/mL; IC50 (µg/mL), pseudovirus neutralization [15]: 0.138 µg/mL; IC50 neutralization [16]: 0.009 µg/mL; IC50 neutralization [17]: 0.029 µg/mL; neutralization IC50 [18]: 0.008 µg/mL; IC50 (µg/mL), pseudovirus neutralization [19]: > 50 µg/mL; IC50 (µg/mL), pseudovirus neutralization [20]: 0.009 µg/mL; IC50 [21]: 0.011 µg/mL; IC50 (µg/mL), pseudovirus neutralization [22]: > 50 µg/mL; IC50 (µg/mL), pseudovirus neutralization [23]: 0.011 µg/mL; IC50 (µg/mL), pseudovirus neutralization [24]: > 50 µg/mL; IC50 neutralization [25]: 0.02 µg/mL; IC50 neutralization [26]: 0.012 µg/mL; neutralization IC50 [27]: 0.007 µg/mL
16 | 4993_K13 (PGT-141) (antibody) |  |  |  |  |  |  |  |  |  |  |  |  |  | 20.3 | > 50 | IC50 (neutralizing activity, pseudovirus) [32]: > 10 µg/mL
